Numbering of substitutions follows the chain as printed.

B1: h528 Fv comprising mutant VL LRL (other)
VH: QVQLVQSGAEVKKPGASVKVSCKASGYTFTSYWMHWVRQAPGQGLEWMGNIYPGSGGTNYAEKFKNRVTMTRDTSISTAYMELSRLRSDDTAVYYCARSGGPYFFDYWGQGTLVTVSS
VL: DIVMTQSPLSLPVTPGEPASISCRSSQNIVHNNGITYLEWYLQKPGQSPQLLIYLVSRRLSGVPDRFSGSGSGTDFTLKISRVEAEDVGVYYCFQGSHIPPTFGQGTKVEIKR
B2: h528Fv WT (other)
VH: B1 VH
VL: DIVMTQSPLSLPVTPGEPASISCRSSQNIVHNNGITYLEWYLQKPGQSPQLLIYKVSDRFSGVPDRFSGSGSGTDFTLKISRVEAEDVGVYYCFQGSHIPPTFGQGTKVEIKR
B3: h528 Fv comprising mutant VL LRS (other)
VH: B1 VH
VL: B2 VL with K55L, D58R, F60S

The first assay concerns the target T1, soluble EGFR (human epithelial cell growth factor receptor 1, Her1) (human, UniProt P00533 25-645). The experiment in a line: SPR. On the technique in general: In SPR one partner is held on a chip, and binding of the other changes the refractive index at the surface.
B1 registered a Ka of 3.5e+08 M⁻¹.

B2: the Ka was 4e+07 M⁻¹.

B3 yielded a Ka of 6.8e+08 M⁻¹.

The target of another assay is T1, soluble EGFR (human epithelial cell …). Briefly: ITC. (In general: In ITC the heat of successive injections is recorded.)
B1 registered a Ka of 4.1e+09 M⁻¹.

Regarding B2, the Ka came out at 2.1e+07 M⁻¹.

Consider B3, for which the Ka was found to be 1.05e+09 M⁻¹.

Another assay shares this target. The experiment in a line: SPR. The source holds these as a separate data set.
For orientation: koff means the first-order rate constant of dissociation. Low values mean a long-lived complex, high ones a short-lived complex. With B1, the koff was determined as 0.00085 s⁻¹.

Molecule B2 gave a koff of 0.006 s⁻¹.

For the molecule B3, the dissociation rate constant (koff) was 0.00078 s⁻¹. This koff is about 7.7-fold lower than that of the molecule before.

The values are drawn from patent US20130131320A1 (published 2013).
